Results taken from the supplement of paper PMC10567573.

B1: HDAC6 (parent)
chain: YVHHQALLDVKNIAHQNKFGEDMP

Variants of: B1
Test: protein stability index of a GFP-peptide fusion (GPS, HEK-293T) (PSI 1-6); higher = more stable
Conditions: c terminus: a fixed tail appended
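Note: lentivirally expressed fusions sorted by FACS into six bins by GFP to DsRed ratio, PSI derived from sequencing read proportions per bin multiplied by bin number.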

Row | Variant | protein stability index
1 | YVHHQALLDVKNIAHQNKFAEDMP | 1.99
2 | YVHHQALLDVKNIAHQNKFDEDMP | 2.28
3 | YVHHQALLDVKNIAHQNKFFEDMP | 3.09
4 | YVHHQALLDVKNIAHQNKFTEDMP | 1.91
5 | YVHHQALLDVKNIAHQNKFVEDMP | 2.13
6 | YVHHQALLDVKNIAHQNKFGENMP | 2.31
7 | YVHHQALLDVKNIAHQNKFGEVMP | 1.5
8 | YVHHQALLDVKNIAHQNKFGEQMP | 1.76
9 | YVHHQALLDVKNIAHQNKFGELMP | 2.17
10 | YEHHQALLDVKNIAHQNKFGEDMP | 4.55
11 | YNHHQALLDVKNIAHQNKFGEDMP | 4.12
12 | YRHHQALLDVKNIAHQNKFGEDMP | 3.69
13 | YVHHQALLDTKNIAHQNKFGEDMP | 1.86
14 | YVHHQALLDQKNIAHQNKFGEDMP | 2.43
15 | YVHHQALLDHKNIAHQNKFGEDMP | 2.14
16 | YVHHQALLDWKNIAHQNKFGEDMP | 2.37
17 | YVHHQALLDLKNIAHQNKFGEDMP | 1.9
18 | YVHHQALLDVKNIAVQNKFGEDMP | 2.08
19 | YVHHQALLDVKNIASQNKFGEDMP | 1.75
20 | YVHHQALLDVKNIAIQNKFGEDMP | 1.77
21 | YVHHQALLDVKMIAHQNKFGEDMP | 1.87
22 | YVHWQALLDVKNIAHQNKFGEDMP | 3.43
23 | YVHVQALLDVKNIAHQNKFGEDMP | 1.95
24 | YVHHQGLLDVKNIAHQNKFGEDMP | 2.65

Row | Variant | protein stability index
25 | YVHHQSLLDVKNIAHQNKFGEDMP | 2.41
26 | YVHHQYLLDVKNIAHQNKFGEDMP | 2.07
27 | YVHHQKLLDVKNIAHQNKFGEDMP | 1.64
28 | YVHHQELLDVKNIAHQNKFGEDMP | 2.17
29 | YVHHQALLDVPNIAHQNKFGEDMP | 1.92
30 | YVHHQALLDVSNIAHQNKFGEDMP | 2.74
31 | YVHHQALLDVVNIAHQNKFGEDMP | 1.41
32 | YVHHQALLDVANIAHQNKFGEDMP | 1.81
33 | YVHHQALLDVKNIAHQNRFGEDMP | 2.88
34 | YVHHQALLDVKNIAHQNHFGEDMP | 1.78
35 | YVHHYALLDVKNIAHQNKFGEDMP | 2.35
36 | YVHHKALLDVKNIAHQNKFGEDMP | 2.02
37 | YVHHTALLDVKNIAHQNKFGEDMP | 1.95
38 | YVHHQALLDVKNIAHQNKFGEDMD | 1.96
39 | YVHHQALLDVKNIAHQNKFGEDMQ | 1.91
40 | YVHHQALLDVKNIAHQNKFGEDMH | 1.58
41 | YVHHQALLDVKNIAHQNKFGEDMC | 1.98
42 | YVHHQALLDVKNIAHQNKFGEDGP | 2.03
43 | YVHHQALLDVKNIAHQNKFGEDEP | 2.06
44 | YVHHQALLDVKNIAHQNKFGEDLP | 1.97
45 | YVHHQALLDVKNIAHQNKFGEDYP | 2.14
46 | YVHHQALLDVKNIAHCNKFGEDMP | 2.01
47 | YVHHQALLDVKNIAHDNKFGEDMP | 2
48 | YVHHQALLDVKNIAHYNKFGEDMP | 2.31

Row | Variant | protein stability index
49 | YVHHQALLDVKNIAHHNKFGEDMP | 1.77
50 | YVHHQALLDVKNVAHQNKFGEDMP | 2.31
51 | YVHHQALLDVKNSAHQNKFGEDMP | 2.28
52 | YVHHQALLQVKNIAHQNKFGEDMP | 1.68
53 | YVHHQALLEVKNIAHQNKFGEDMP | 2.4
54 | YVHHQALLVVKNIAHQNKFGEDMP | 1.25
55 | YVHHQALLPVKNIAHQNKFGEDMP | 4.3
56 | PVHHQALLDVKNIAHQNKFGEDMP | 4.1
57 | HVHHQALLDVKNIAHQNKFGEDMP | 3.66
58 | LVHHQALLDVKNIAHQNKFGEDMP | 3.3
59 | VVHHQALLDVKNIAHQNKFGEDMP | 3.14
60 | YVHHQAMLDVKNIAHQNKFGEDMP | 2.32
61 | YVHHQANLDVKNIAHQNKFGEDMP | 2.4
62 | YVHHQAKLDVKNIAHQNKFGEDMP | 1.9
63 | YVHHQATLDVKNIAHQNKFGEDMP | 2.18
64 | YVHHQAFLDVKNIAHQNKFGEDMP | 2.39
65 | YVHHQALLDVKNIAHQNKFGCDMP | 2.23
66 | YVHHQALLDVKNIAHQNKFGDDMP | 1.97
67 | YVHHQALLDVKNIAHQNKFGGDMP | 2.14
68 | YVHHQALLDVKNIAHQNKFGQDMP | 2.11
69 | YVHHQALLDVKNIAHQNKFGTDMP | 2.01
70 | YVHHQALLDVKNIAHQNKFGLDMP | 1.72
71 | YVHHQALLDVKNIAHQNKFGRDMP | 1.47
72 | YVHHQALLDVKNIAHQVKFGEDMP | 1.75

Row | Variant | protein stability index
73 | YVHHQALLDVKNIAHQGKFGEDMP | 1.58
74 | YVHHQALLDVKNIAHQSKFGEDMP | 2.46
75 | YVHHQALLDVKNIAHQIKFGEDMP | 1.48
76 | YVHHQALLDVKNIAHQAKFGEDMP | 2.83
77 | YVHHQALLDVKNIAHQWKFGEDMP | 1.19
78 | YVHHQALCDVKNIAHQNKFGEDMP | 2.43
79 | YVHHQALFDVKNIAHQNKFGEDMP | 3.34
80 | YVHHQALEDVKNIAHQNKFGEDMP | 2.87
81 | YVHHQALADVKNIAHQNKFGEDMP | 1.93
82 | YVHHQALLDVKNIPHQNKFGEDMP | 2.42
83 | YVHHQALLDVKNIWHQNKFGEDMP | 2.79
84 | YVHHQALLDVKNISHQNKFGEDMP | 2.35
85 | YVHHQALLDVKNIKHQNKFGEDMP | 2.33
86 | YVHHQALLDVKNIAHQNKTGEDMP | 2.19
87 | YVHHQALLDVKNIAHQNKYGEDMP | 1.96
88 | YVHHQALLDVKNIAHQNKAGEDMP | 2.51
89 | YVHHQALLDVKNIAHQNKSGEDMP | 2.39
90 | YVHHQALLDVKNIAHQNKKGEDMP | 1.91
91 | YVNHQALLDVKNIAHQNKFGEDMP | 2.62
92 | YVMHQALLDVKNIAHQNKFGEDMP | 1.8
93 | YVWHQALLDVKNIAHQNKFGEDMP | 2.41
94 | YVYHQALLDVKNIAHQNKFGEDMP | 1.69
